This passage reports Kd results from PMC5761661 (Biochemistry, 2017).

Test [1] concerns the target IpaD (invasion plasmid antigen D) (Shigella flexneri, UniProt P18013). Kind of test: fluorescence polarization, single site saturation fit. Format: binding. As to conditions: read-out: Kd (μM) ± SD ^a; labelled compound; 25 nM FITC-DOC, 0-30 μM IpaD, PBS, 23 °C, 30 min. (In general: In fluorescence polarisation assays a small probe gives low polarisation when free and higher when bound to something large.)

For test [2], the target named is IpaB^28–226-Alexa568 (Shigella flexneri). In words: fluorescence polarisation.
The target is the same in test [3]. In words: fluorescence polarisation. The source holds these as a separate data set.

Read-outs that look alike come from different tables or passages of the source.

What is called Kd is the concentration at which binding is half-saturated. For FITC-deoxycholate, in test [1], the Kd is 9.3 ± 1.8 µM.
For the substance “IpaD D144A/N146A/Y149A triple mutant (from UniProt P18013 1-332) (natural protein)”, the dissociation constant Kd in test [2] came out at 2200 nM; in test [3], 7400 nM.
Consider “IpaD Y149A (from UniProt P18013 1-332) (natural protein)”, for which the Kd in test [2] turned out to be 500 nM.
On the same count and under the same terms, with “Wild-type IpaD (invasion plasmid antigen D) (from UniProt P18013 1-332) (natural protein)” the figure was 2000 nM.
